± gives the standard deviation of the averaged measurements.
B1: library; a variant is named by its letters at N, in order (parent)
chain: GCUGUCACCGGUGUAUUACCCUAGUGGUCGACCGGUCUGAUGAGUCUNNNNNNAGACGAAACAGC

How the values were obtained:
hypoxanthine [1] = variants of: B1; assay: normalized RNA/DNA level with ligand (relative to sTRSVctl = 100) (log10 (% of sTRSVctl)); ligand: hypoxanthine (xanthine aptamer); higher = less ribozyme self-cleavage, higher mRNA level; conditions: ligand concentration (+) RNA-Seq: 5 mM, HEK293T, reporter: mCherry (pCS4076), ligand present: yes
Procedure, shortened: (§1)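 HEK293T cells were transfected with library plasmids carrying ribozyme switches linked to an mCherry reporter, or an eGFP reporter in some ligand experiments, at 4 µg per well of a 6-well plate, with any ligand added 1 h beforehand. After 72 h, total RNA was extracted with EDTA, reverse-transcribed, amplified, barcoded and sequenced. RNA level was defined as RNA reads over DNA reads, normalized to a spiked-in non-cleaving sequence or to the top-ranked sequences. That value was multiplied by 100 and converted to log10, the top set was 25 sequences, and only sequences with ≥100 DNA reads were retained.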

hypoxanthine [2] = variants of: B1; assay: normalized RNA/DNA level without ligand (relative to sTRSVctl = 100) (log10 (% of sTRSVctl)); ligand: hypoxanthine (xanthine aptamer); higher = less ribozyme self-cleavage, higher mRNA level; conditions: HEK293T, reporter: mCherry (pCS4076), ligand present: no
Procedure, shortened: as §1

| Variant | normalized RNA/DNA level with ligand (log10) (hypoxanthine [1]) | normalized RNA/DNA level without ligand (log10) (hypoxanthine [2]) |
| --- | --- | --- |
| UGCCGA | 1.94 ± 0.024 | 1.678 ± 0.014 |
| AGAUGC | 1.96 ± 0.07 | 1.72 ± 0.072 |
| CGCACA | 1.92 ± 0.024 | 1.738 ± 0.016 |
| CGCACG | 1.95 ± 0.089 | 1.87 ± 0.044 |
| CGCACC | 1.93 ± 0.093 | 1.9 ± 0.028 |
| CGCACU | 2 ± 0.11 | 1.89 ± 0.066 |
| CGGAAC | 1.85 ± 0.026 | 1.51 ± 0.072 |
| CGCGCA | 1.97 ± 0.063 | 1.81 ± 0.036 |
| CGCGCG | 1.9548 ± 0.00063 | 1.78 ± 0.035 |
| CGCGCU | 1.92 ± 0.076 | 1.93 ± 0.062 |
| UGCGCC | 1.989 ± 0.0081 | 1.93 ± 0.065 |
| UGCGCA | 1.94 ± 0.034 | 1.82 ± 0.052 |
| UGCGCU | 1.966 ± 0.0057 | 1.93 ± 0.023 |
| CGAUAU | 1.911 ± 0.0083 | 1.74 ± 0.024 |
| UGAUUA | 1.91 ± 0.087 | 1.88 ± 0.049 |
| UGAUUG | 1.97 ± 0.043 | 1.763 ± 0.0098 |
| UGCAAC | 1.963 ± 0.0065 | 1.83 ± 0.022 |
| UGCAAU | 1.9506 ± 0.00045 | 1.807 ± 0.01 |
| AGCCGU | 1.92 ± 0.03 | 1.69 ± 0.024 |
| AGCCGC | 1.9 ± 0.096 | 1.84 ± 0.0076 |
| AGAUCA | 1.97 ± 0.049 | 1.81 ± 0.045 |
| AGAUCU | 1.94 ± 0.051 | 1.829 ± 0.015 |
| AGAUCC | 1.936 ± 0.0091 | 1.874 ± 0.0045 |
| AGAUCG | 1.89 ± 0.031 | 1.55 ± 0.048 |

| Variant | normalized RNA/DNA level with ligand (log10) (hypoxanthine [1]) | normalized RNA/DNA level without ligand (log10) (hypoxanthine [2]) |
| --- | --- | --- |
| AGCGCA | 1.94 ± 0.019 | 1.758 ± 0.0078 |
| AGCGCC | 1.93 ± 0.034 | 1.86 ± 0.04 |
| CGCCGU | 1.986 ± 0.014 | 2 ± 0.043 |
| CGCCGC | 1.97 ± 0.063 | 1.923 ± 0.0072 |
| CGCCGA | 2.04 ± 0.052 | 1.89 ± 0.042 |
| CGCCGG | 1.913 ± 0.0023 | 1.61 ± 0.065 |
| GGCUGU | 1.96 ± 0.025 | 1.95 ± 0.046 |
| GGCUGA | 2.01 ± 0.032 | 1.87 ± 0.026 |
| GGCUGC | 1.92 ± 0.048 | 1.58 ± 0.039 |
| GGCUGG | 1.9543 ± 0.0009 | 1.66 ± 0.048 |
| UGCUUA | 1.937 ± 0.019 | 1.95 ± 0.046 |
| UGCUUC | 1.988 ± 0.0048 | 1.96 ± 0.045 |
| UGCUUU | 1.96 ± 0.064 | 1.94 ± 0.0096 |
| UGCUUG | 1.923 ± 0.019 | 1.85 ± 0.091 |
| GGCGUA | 1.908 ± 0.015 | 1.858 ± 0.00033 |
| GGCGUU | 2.0064 ± 0.00076 | 1.966 ± 0.011 |
| GGCGUC | 1.94 ± 0.073 | 1.901 ± 0.014 |
| GGCCUU | 1.975 ± 0.013 | 1.968 ± 0.011 |
| GGCCUC | 1.99 ± 0.13 | 1.96 ± 0.084 |
| GGCCUA | 1.98 ± 0.063 | 1.98 ± 0.026 |
| CGCUUU | 1.911 ± 0.01 | 1.859 ± 0.009 |
| CGCUUA | 1.861 ± 0.0029 | 1.7 ± 0.036 |
| CGCUUG | 1.91 ± 0.07 | 1.93 ± 0.076 |
| CGCUUC | 1.996 ± 0.0043 | 1.92 ± 0.14 |

| Variant | normalized RNA/DNA level with ligand (log10) (hypoxanthine [1]) | normalized RNA/DNA level without ligand (log10) (hypoxanthine [2]) |
| --- | --- | --- |
| AGCCUC | 2.01 ± 0.082 | 1.959 ± 0.019 |
| AGCCUA | 1.987 ± 0.019 | 1.87 ± 0.028 |
| UGCGAU | 1.933 ± 0.011 | 1.79 ± 0.081 |
| UGCGAG | 1.868 ± 0.0049 | 1.658 ± 0.009 |
| UGCGAC | 1.96 ± 0.0073 | 1.77 ± 0.028 |
| UGCGAA | 1.86 ± 0.021 | 1.724 ± 0.013 |
| UGCUGC | 1.972 ± 0.011 | 1.958 ± 0.006 |
| UGCUGG | 1.95 ± 0.04 | 1.707 ± 0.011 |
| UGCUGU | 1.95 ± 0.0027 | 1.92 ± 0.03 |
| GGCGAA | 1.92 ± 0.037 | 1.801 ± 0.017 |
| GGCGAG | 1.82 ± 0.021 | 1.47 ± 0.087 |
| GGCGAC | 1.93 ± 0.12 | 1.83 ± 0.021 |
| UGCGGG | 1.98 ± 0.11 | 1.754 ± 0.0048 |
| UGCGGU | 1.905 ± 0.01 | 1.742 ± 0.0036 |
| GGCCGA | 1.98 ± 0.038 | 1.854 ± 0.014 |
| GGCCGG | 1.95 ± 0.039 | 1.84 ± 0.026 |
| GGCCGC | 1.879 ± 0.014 | 1.7 ± 0.06 |
| CGCGUG | 1.97 ± 0.068 | 1.73 ± 0.082 |
| CGCGUU | 1.99 ± 0.054 | 1.905 ± 0.0075 |
| CGCGUC | 1.97 ± 0.075 | 2.01 ± 0.061 |
| CGCCCA | 1.96 ± 0.06 | 1.92 ± 0.041 |
| CGCCCG | 1.958 ± 0.0098 | 1.915 ± 0.005 |
| CGCCCU | 2.077 ± 0.0049 | 1.952 ± 0.014 |
| CGCCCC | 1.971 ± 0.013 | 1.922 ± 0.0052 |

| Variant | normalized RNA/DNA level with ligand (log10) (hypoxanthine [1]) | normalized RNA/DNA level without ligand (log10) (hypoxanthine [2]) |
| --- | --- | --- |
| AGCUCU | 1.96 ± 0.033 | 1.89 ± 0.04 |
| AGCUCA | 1.998 ± 0.00082 | 1.895 ± 0.011 |
| AGCUCC | 1.97 ± 0.14 | 1.95 ± 0.034 |
| AGGACA | 1.89 ± 0.066 | 1.71 ± 0.042 |
| AGCAUC | 2.07 ± 0.038 | 1.96 ± 0.025 |
| CGCUAA | 1.91 ± 0.061 | 1.71 ± 0.028 |
| CGCUAC | 1.86 ± 0.041 | 1.74 ± 0.074 |
| CGCUAU | 1.91 ± 0.092 | 1.78 ± 0.028 |
| AGCCCC | 1.963 ± 0.015 | 1.91 ± 0.089 |
| AGCCCU | 1.94 ± 0.03 | 1.932 ± 0.013 |
| GGAUUA | 1.94 ± 0.04 | 1.83 ± 0.057 |
| GGAUUC | 1.98 ± 0.041 | 1.94 ± 0.0086 |
| GGAUUU | 1.99 ± 0.024 | 1.89 ± 0.02 |
| AGCUGU | 1.938 ± 0.0047 | 1.75 ± 0.028 |
| UGAUGU | 1.91 ± 0.02 | 1.67 ± 0.022 |
| UGAUGG | 1.92 ± 0.062 | 1.51 ± 0.064 |
| UGAUGC | 1.95 ± 0.059 | 1.852 ± 0.014 |
| AGGAAU | 1.906 ± 0.017 | 1.739 ± 0.0039 |
| AGCUUU | 1.94 ± 0.032 | 1.908 ± 0.0022 |
| AGCUUA | 1.91 ± 0.057 | 1.85 ± 0.0089 |
| CGGACG | 2.01 ± 0.03 | 1.72 ± 0.043 |
| CGGACU | 1.95 ± 0.042 | 1.79 ± 0.024 |
| CGGACC | 1.94 ± 0.037 | 1.94 ± 0.049 |
| GGGAAC | 1.964 ± 0.016 | 1.724 ± 0.01 |

| Variant | normalized RNA/DNA level with ligand (log10) (hypoxanthine [1]) | normalized RNA/DNA level without ligand (log10) (hypoxanthine [2]) |
| --- | --- | --- |
| CGCAUU | 1.942 ± 0.0093 | 1.82 ± 0.036 |
| CGCAUA | 1.9 ± 0.052 | 1.69 ± 0.033 |
| CGCAUG | 1.93 ± 0.059 | 1.81 ± 0.057 |
| UGCACG | 1.923 ± 0.014 | 1.76 ± 0.038 |
| UGCACU | 1.94 ± 0.088 | 1.9 ± 0.0073 |
| UGCACA | 1.934 ± 0.019 | 1.843 ± 0.0094 |
| UGCACC | 1.92 ± 0.057 | 1.93 ± 0.024 |
| AGCGGC | 1.959 ± 0.012 | 1.86 ± 0.042 |
| AGCGGU | 1.91 ± 0.024 | 1.55 ± 0.049 |
| AGAGUU | 1.905 ± 0.0059 | 1.8267 ± 0.0011 |
| CGCCAA | 1.94 ± 0.02 | 1.82 ± 0.064 |
| CGCCAU | 1.88 ± 0.046 | 1.87 ± 0.021 |
| CGCCAC | 1.92 ± 0.043 | 1.84 ± 0.05 |
| UGCGUG | 1.88 ± 0.027 | 1.68 ± 0.084 |
| UGCGUU | 1.986 ± 0.0098 | 1.921 ± 0.0049 |
| UGCGUC | 1.989 ± 0.0044 | 2.031 ± 0.0052 |
| UGCCUU | 1.939 ± 0.0041 | 1.9 ± 0.093 |
| CGCGGA | 2 ± 0.046 | 1.863 ± 0.0046 |
| CGCGGC | 1.99 ± 0.042 | 1.92 ± 0.034 |
| CGCGGU | 1.96 ± 0.025 | 1.87 ± 0.026 |

From the supplement of paper PMC6757056
